# B1: CPEB3 Ribozyme (parent)
# chain: GGGGGCCACAGCAGAAGCGUUCACGUCGCGGCCCCUGUCAGAUUCUGGUGAAUCUGCGAAUUCUGCUGU
# Variants of: B1
# Assay: self-cleavage, relative activity (ratio to wild type); higher = more cleavage; co-transcriptional
row,Variant,self-cleavage
1,C12A G47C,0.837
2,C12A G47U,0.876
3,C12A G48A,0.833
4,C12A G48C,0.771
5,C12A G50A,0.809
6,C12A G50C,0.591
7,C12A G50U,0.738
8,C12A G56A,0.502
9,C12A G56C,0.348
10,C12A G56U,0.296
11,C12A G58C,0.653
12,C12A G58U,0.843
13,C12A G65A,0.887
14,C12A G65U,0.932
15,C12A G68A,0.843
16,C12A G68C,0.842
17,C12A G68U,0.807
18,C12A U20A,0.0992
19,C12A U20C,0.132
20,C12A U20G,0.18
21,C12A U21A,0.642
22,C12A U21C,0.464
23,C12A U26C,0.5
24,C12A U36C,0.441

row,Variant,self-cleavage
1,C12A U38G,0.235
2,C12A U43A,0.259
3,C12A U43C,0.453
4,C12A U43G,0.207
5,C12A U44A,0.349
6,C12A U44C,0.343
7,C12A U44G,0.55
8,C12A U46C,0.609
9,C12A U46G,0.628
10,C12A U49A,0.893
11,C12A U49G,0.846
12,C12A U53A,0.354
13,C12A U53G,0.335
14,C12A U55A,0.23
15,C12A U55G,0.172
16,C12A U61A,0.312
17,C12A U61C,0.246
18,C12A U61G,0.316
19,C12A U62A,0.248
20,C12A U62G,0.312
21,C12A U64G,0.674
22,C12A U67A,0.671
23,C12A U67C,0.812
24,C12A U67G,0.791

row,Variant,self-cleavage
1,C12A U69A,0.886
2,C12A U69C,0.981
3,C12G A13C,0.26
4,C12G A13U,0.129
5,C12G A15C,0.301
6,C12G A15G,0.613
7,C12G A15U,0.171
8,C12G A16G,0.578
9,C12G A40G,0.672
10,C12G A40U,0.404
11,C12G A42C,0.493
12,C12G A42G,0.649
13,C12G A42U,0.61
14,C12G A51C,0.79
15,C12G A51G,0.887
16,C12G A52C,0.792
17,C12G A52G,0.94
18,C12G A52U,0.852
19,C12G A59C,0.339
20,C12G A59G,0.802
21,C12G A60C,0.277
22,C12G A60G,0.451
23,C12G C18A,0.185
24,C12G C18G,0.0782

row,Variant,self-cleavage
1,C12G C18U,0.178
2,C12G C22U,0.149
3,C12G C27A,0.216
4,C12G C27U,0.0756
5,C12G C29A,0.213
6,C12G C29U,0.137
7,C12G C32A,0.224
8,C12G C32G,0.334
9,C12G C32U,0.834
10,C12G C33A,0.68
11,C12G C33G,0.316
12,C12G C34A,0.699
13,C12G C34U,0.89
14,C12G C35U,0.83
15,C12G C39G,0.455
16,C12G C39U,0.533
17,C12G C45A,0.728
18,C12G C45G,0.819
19,C12G C45U,0.868
20,C12G C54A,0.416
21,C12G C54U,0.828
22,C12G C57A,0.25
23,C12G C57G,0.427
24,C12G C57U,0.336

row,Variant,self-cleavage
1,C12G C63A,0.218
2,C12G C63G,0.339
3,C12G C66A,0.487
4,C12G C66G,0.513
5,C12G C66U,0.69
6,C12G G17A,0.148
7,C12G G17C,0.0979
8,C12G G25A,0.161
9,C12G G25U,0.101
10,C12G G28A,0.163
11,C12G G28C,0.157
12,C12G G30C,0.367
13,C12G G31A,0.334
14,C12G G31C,0.217
15,C12G G31U,0.206
16,C12G G37A,0.174
17,C12G G41A,0.353
18,C12G G47A,0.912
19,C12G G47C,0.888
20,C12G G47U,0.965
21,C12G G48A,0.953
22,C12G G48U,0.925
23,C12G G50A,0.917
24,C12G G50C,0.75

row,Variant,self-cleavage
1,C12G G50U,0.84
2,C12G G56C,0.345
3,C12G G58A,0.852
4,C12G G58U,0.945
5,C12G G65A,0.932
6,C12G G65C,0.934
7,C12G G65U,0.952
8,C12G G68U,0.917
9,C12G U20A,0.228
10,C12G U20G,0.125
11,C12G U21A,0.845
12,C12G U21G,0.364
13,C12G U26A,0.695
14,C12G U26C,0.74
15,C12G U26G,0.729
16,C12G U36A,0.228
17,C12G U36G,0.294
18,C12G U38A,0.739
19,C12G U38G,0.126
20,C12G U43A,0.519
21,C12G U43C,0.706
22,C12G U44C,0.488
23,C12G U44G,0.868
24,C12G U46A,0.91

row,Variant,self-cleavage
1,C12G U46C,0.832
2,C12G U46G,0.862
3,C12G U49G,0.857
4,C12G U53A,0.634
5,C12G U53C,0.408
6,C12G U53G,0.654
7,C12G U55A,0.403
8,C12G U55C,0.558
9,C12G U55G,0.284
10,C12G U61A,0.537
11,C12G U61G,0.592
12,C12G U62G,0.338
13,C12G U64A,0.508
14,C12G U67A,0.8
15,C12G U67G,0.797
16,C12G U69A,0.881
17,C12G U69G,1.04
18,C12U A13C,0.629
19,C12U A13G,0.793
20,C12U A13U,0.583
21,C12U A15G,0.999
22,C12U A15U,0.502
23,C12U A16C,0.134
24,C12U A16G,0.814

row,Variant,self-cleavage
1,C12U A16U,0.655
2,C12U A23G,0.946
3,C12U A23U,0.963
4,C12U A40C,0.358
5,C12U A40G,0.902
6,C12U A42C,0.885
7,C12U A42G,0.863
8,C12U A42U,0.91
9,C12U A51G,0.996
10,C12U A51U,0.991
11,C12U A52C,0.903
12,C12U A52G,1.01
13,C12U A59C,0.623
14,C12U A59G,0.968
15,C12U A59U,0.822
16,C12U A60C,0.299
17,C12U A60G,0.716
18,C12U C18A,0.0961
19,C12U C18G,0.218
20,C12U C18U,0.6
21,C12U C22G,0.248
22,C12U C22U,0.16
23,C12U C27A,0.419
24,C12U C27U,0.297

row,Variant,self-cleavage
1,C12U C29G,0.317
2,C12U C29U,0.232
3,C12U C32A,0.874
4,C12U C32G,0.529
5,C12U C33U,0.972
6,C12U C34A,0.778
7,C12U C34G,0.734
8,C12U C34U,0.959
9,C12U C39G,0.928
10,C12U C39U,0.854
11,C12U C45A,0.97
12,C12U C54A,0.812
13,C12U C54G,0.84
14,C12U C57A,0.438
15,C12U C57G,0.31
16,C12U C63G,0.443
17,C12U C66A,0.571
18,C12U G14A,0.19
19,C12U G17A,0.281
20,C12U G17C,0.138
21,C12U G17U,0.321
22,C12U G19A,0.12
23,C12U G19C,0.154
24,C12U G25A,0.184

row,Variant,self-cleavage
1,C12U G25C,0.121
2,C12U G25U,0.134
3,C12U G28A,0.17
4,C12U G28C,0.175
5,C12U G28U,0.131
6,C12U G30A,0.864
7,C12U G31A,0.905
8,C12U G31C,0.191
9,C12U G31U,0.723
10,C12U G37A,0.302
11,C12U G37C,0.241
12,C12U G37U,0.222
13,C12U G41U,0.718
14,C12U G47A,1.03
15,C12U G47C,1.03
16,C12U G47U,0.998
17,C12U G48U,1.01
18,C12U G50A,1
19,C12U G50C,0.974
20,C12U G56A,0.844
21,C12U G58A,1.01
22,C12U G58U,0.991
23,C12U G65A,1
24,C12U G65C,0.864

row,Variant,self-cleavage
1,C12U G65U,0.948
2,C12U G68A,0.997
3,C12U G68U,0.995
4,C12U U20A,0.146
5,C12U U20C,0.165
6,C12U U21A,0.947
7,C12U U21G,0.537
8,C12U U26A,0.91
9,C12U U26C,0.996
10,C12U U26G,0.925
11,C12U U36A,0.231
12,C12U U36G,0.193
13,C12U U38C,0.921
14,C12U U38G,0.277
15,C12U U43C,0.928
16,C12U U43G,0.706
17,C12U U44C,0.906
18,C12U U46A,1
19,C12U U46C,0.939
20,C12U U49C,0.971
21,C12U U49G,1
22,C12U U53A,0.909
23,C12U U53G,0.771
24,C12U U55C,0.83

row,Variant,self-cleavage
1,C12U U55G,0.616
2,C12U U61A,0.822
3,C12U U62A,0.819
4,C12U U62G,0.542
5,C12U U64A,0.697
6,C12U U64C,0.785
7,C12U U64G,0.757
8,C12U U67A,0.948
9,C12U U67G,0.938
10,C12U U69C,1.07
11,A13C A15G,0.662
12,A13C A16C,0.102
13,A13C A16G,0.682
14,A13C A16U,0.185
15,A13C A23G,0.507
16,A13C A23U,0.788
17,A13C A40C,0.247
18,A13C A40U,0.23
19,A13C A42G,0.506
20,A13C A42U,0.561
21,A13C A51G,0.903
22,A13C A52C,0.77
23,A13C A52U,0.837
24,A13C A59C,0.395

row,Variant,self-cleavage
1,A13C A59G,0.794
2,A13C A59U,0.479
3,A13C A60C,0.301
4,A13C A60G,0.384
5,A13C C18A,0.181
6,A13C C18G,0.0963
7,A13C C18U,0.262
8,A13C C22U,0.209
9,A13C C24A,0.402
10,A13C C24U,0.543
11,A13C C27A,0.145
12,A13C C27U,0.15
13,A13C C29A,0.21
14,A13C C29U,0.0773
15,A13C C32A,0.55
16,A13C C33A,0.593
17,A13C C34G,0.498
18,A13C C35G,0.323
19,A13C C35U,0.751
20,A13C C39U,0.555
21,A13C C45A,0.761
22,A13C C45G,0.835
23,A13C C54A,0.414
24,A13C C54G,0.45

row,Variant,self-cleavage
1,A13C C54U,0.773
2,A13C C57A,0.276
3,A13C C63A,0.467
4,A13C C63G,0.366
5,A13C C63U,0.732
6,A13C C66A,0.48
7,A13C C66G,0.862
8,A13C C66U,0.465
9,A13C G14A,0.251
10,A13C G14C,0.228
11,A13C G14U,0.22
12,A13C G17A,0.0886
13,A13C G17C,0.122
14,A13C G19U,0.138
15,A13C G25C,0.0875
16,A13C G28A,0.108
17,A13C G28C,0.149
18,A13C G28U,0.116
19,A13C G30C,0.451
20,A13C G30U,0.281
21,A13C G31A,0.654
22,A13C G31U,0.508

# Reference: the RNAGym collection of RNA variant scans (doi:10.7554/elife.80360)
